Source: US20200115430A1 (I2O THERAPEUTICS, published 2020)
Starred links: 1 amine or outer side, 2 acyl side, 3 side chain; linkers in the order of their positions; H or OH if unused. Positions of bridges follow the written chain, without caps; N, C: chain ends. Groups on a side chain read outwards from the residue. No end group written: not given here. *: point of attachment. C20 diacid = O=C(O)CCCCCCCCCCCCCCCCCCC(=O)*; C18 diacid = O=C(O)CCCCCCCCCCCCCCCCC(=O)*; γGlu = O=C(O)[C@H](CCC(=O)[*:2])N[*:1]

B1: Compound A73 (peptide)
peptide: SCNTSTCATQRLANEK([γGlu-C20 diacid])HKSSNNFGPILPPTKVGSETY-NH2
modifications: disulfide 2-7; N-terminus assumed
SMILES: CC[C@H](C)[C@H](NC(=O)[C@@H]1CCCN1C(=O)CNC(=O)[C@H](Cc1ccccc1)NC(=O)[C@H](CC(N)=O)NC(=O)[C@H](CC(N)=O)NC(=O)[C@H](CO)NC(=O)[C@H](CO)NC(=O)[C@H](CCCCN)NC(=O)[C@H](Cc1c[nH]cn1)NC(=O)[C@H](CCCCNC(=O)CC[C@H](NC(=O)CCCCCCCCCCCCCCCCCCC(=O)O)C(=O)O)NC(=O)[C@H](CCC(=O)O)NC(=O)[C@H](CC(N)=O)NC(=O)[C@H](C)NC(=O)[C@H](CC(C)C)NC(=O)[C@H](CCCNC(=N)N)NC(=O)[C@H](CCC(N)=O)NC(=O)[C@@H](NC(=O)[C@H](C)NC(=O)[C@@H]1CSSC[C@H](NC(=O)[C@@H](N)CO)C(=O)N[C@@H](CC(N)=O)C(=O)N[C@@H]([C@@H](C)O)C(=O)N[C@@H](CO)C(=O)N[C@@H]([C@@H](C)O)C(=O)N1)[C@@H](C)O)C(=O)N[C@@H](CC(C)C)C(=O)N1CCC[C@H]1C(=O)N1CCC[C@H]1C(=O)N[C@H](C(=O)N[C@@H](CCCCN)C(=O)N[C@H](C(=O)NCC(=O)N[C@@H](CO)C(=O)N[C@@H](CCC(=O)O)C(=O)N[C@H](C(=O)N[C@@H](Cc1ccc(O)cc1)C(N)=O)[C@@H](C)O)C(C)C)[C@@H](C)O
B2: Compound A55 (peptide)
peptide: K(C18 diacid)CNTSTCATSRLANFLQKSSNNFGPILPPTKVGSETY-NH2
modifications: disulfide 2-7; N-terminus assumed
SMILES: CC[C@H](C)[C@H](NC(=O)[C@@H]1CCCN1C(=O)CNC(=O)[C@H](Cc1ccccc1)NC(=O)[C@H](CC(N)=O)NC(=O)[C@H](CC(N)=O)NC(=O)[C@H](CO)NC(=O)[C@H](CO)NC(=O)[C@H](CCCCN)NC(=O)[C@H](CCC(N)=O)NC(=O)[C@H](CC(C)C)NC(=O)[C@H](Cc1ccccc1)NC(=O)[C@H](CC(N)=O)NC(=O)[C@H](C)NC(=O)[C@H](CC(C)C)NC(=O)[C@H](CCCNC(=N)N)NC(=O)[C@H](CO)NC(=O)[C@@H](NC(=O)[C@H](C)NC(=O)[C@@H]1CSSC[C@H](NC(=O)[C@@H](N)CCCCNC(=O)CCCCCCCCCCCCCCCCC(=O)O)C(=O)N[C@@H](CC(N)=O)C(=O)N[C@@H]([C@@H](C)O)C(=O)N[C@@H](CO)C(=O)N[C@@H]([C@@H](C)O)C(=O)N1)[C@@H](C)O)C(=O)N[C@@H](CC(C)C)C(=O)N1CCC[C@H]1C(=O)N1CCC[C@H]1C(=O)N[C@H](C(=O)N[C@@H](CCCCN)C(=O)N[C@H](C(=O)NCC(=O)N[C@@H](CO)C(=O)N[C@@H](CCC(=O)O)C(=O)N[C@H](C(=O)N[C@@H](Cc1ccc(O)cc1)C(N)=O)[C@@H](C)O)C(C)C)[C@@H](C)O
B3: Compound A76 (peptide)
peptide: SCNTSTCATQRLANEK([γGlu-C18 diacid])HKSSNNFGPILPPTKVGSETY-NH2
modifications: disulfide 2-7; N-terminus assumed
SMILES: CC[C@H](C)[C@H](NC(=O)[C@@H]1CCCN1C(=O)CNC(=O)[C@H](Cc1ccccc1)NC(=O)[C@H](CC(N)=O)NC(=O)[C@H](CC(N)=O)NC(=O)[C@H](CO)NC(=O)[C@H](CO)NC(=O)[C@H](CCCCN)NC(=O)[C@H](Cc1c[nH]cn1)NC(=O)[C@H](CCCCNC(=O)CC[C@H](NC(=O)CCCCCCCCCCCCCCCCC(=O)O)C(=O)O)NC(=O)[C@H](CCC(=O)O)NC(=O)[C@H](CC(N)=O)NC(=O)[C@H](C)NC(=O)[C@H](CC(C)C)NC(=O)[C@H](CCCNC(=N)N)NC(=O)[C@H](CCC(N)=O)NC(=O)[C@@H](NC(=O)[C@H](C)NC(=O)[C@@H]1CSSC[C@H](NC(=O)[C@@H](N)CO)C(=O)N[C@@H](CC(N)=O)C(=O)N[C@@H]([C@@H](C)O)C(=O)N[C@@H](CO)C(=O)N[C@@H]([C@@H](C)O)C(=O)N1)[C@@H](C)O)C(=O)N[C@@H](CC(C)C)C(=O)N1CCC[C@H]1C(=O)N1CCC[C@H]1C(=O)N[C@H](C(=O)N[C@@H](CCCCN)C(=O)N[C@H](C(=O)NCC(=O)N[C@@H](CO)C(=O)N[C@@H](CCC(=O)O)C(=O)N[C@H](C(=O)N[C@@H](Cc1ccc(O)cc1)C(N)=O)[C@@H](C)O)C(C)C)[C@@H](C)O
B4: Compound A114 (peptide)
peptide: K([γGlu-γGlu-C20 diacid])CNTSTCATSRLANFLQKSSNNFGPILPPTKVGSETY-NH2
modifications: disulfide 2-7; N-terminus assumed
SMILES: CC[C@H](C)[C@H](NC(=O)[C@@H]1CCCN1C(=O)CNC(=O)[C@H](Cc1ccccc1)NC(=O)[C@H](CC(N)=O)NC(=O)[C@H](CC(N)=O)NC(=O)[C@H](CO)NC(=O)[C@H](CO)NC(=O)[C@H](CCCCN)NC(=O)[C@H](CCC(N)=O)NC(=O)[C@H](CC(C)C)NC(=O)[C@H](Cc1ccccc1)NC(=O)[C@H](CC(N)=O)NC(=O)[C@H](C)NC(=O)[C@H](CC(C)C)NC(=O)[C@H](CCCNC(=N)N)NC(=O)[C@H](CO)NC(=O)[C@@H](NC(=O)[C@H](C)NC(=O)[C@@H]1CSSC[C@H](NC(=O)[C@@H](N)CCCCNC(=O)CC[C@H](NC(=O)CC[C@H](NC(=O)CCCCCCCCCCCCCCCCCCC(=O)O)C(=O)O)C(=O)O)C(=O)N[C@@H](CC(N)=O)C(=O)N[C@@H]([C@@H](C)O)C(=O)N[C@@H](CO)C(=O)N[C@@H]([C@@H](C)O)C(=O)N1)[C@@H](C)O)C(=O)N[C@@H](CC(C)C)C(=O)N1CCC[C@H]1C(=O)N1CCC[C@H]1C(=O)N[C@H](C(=O)N[C@@H](CCCCN)C(=O)N[C@H](C(=O)NCC(=O)N[C@@H](CO)C(=O)N[C@@H](CCC(=O)O)C(=O)N[C@H](C(=O)N[C@@H](Cc1ccc(O)cc1)C(N)=O)[C@@H](C)O)C(C)C)[C@@H](C)O

Each binder was assayed against T1, human calcitonin receptor (human, UniProt P30988 25-474) (assay: cell-based or functional assay).
T1 sequence (looked up): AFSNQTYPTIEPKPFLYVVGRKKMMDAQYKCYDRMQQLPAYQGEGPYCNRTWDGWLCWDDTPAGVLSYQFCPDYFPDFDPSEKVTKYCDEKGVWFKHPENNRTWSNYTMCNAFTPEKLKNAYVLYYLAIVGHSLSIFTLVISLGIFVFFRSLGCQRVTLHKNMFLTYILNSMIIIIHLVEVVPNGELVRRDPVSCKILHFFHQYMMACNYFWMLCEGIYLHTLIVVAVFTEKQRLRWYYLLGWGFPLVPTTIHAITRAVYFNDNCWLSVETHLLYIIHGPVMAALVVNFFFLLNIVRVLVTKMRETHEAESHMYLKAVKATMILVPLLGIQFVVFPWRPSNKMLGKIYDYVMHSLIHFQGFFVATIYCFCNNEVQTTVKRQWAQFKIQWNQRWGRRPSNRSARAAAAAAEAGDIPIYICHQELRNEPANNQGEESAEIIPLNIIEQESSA

Binder | pEC50 (cAMP accumulation), 0% HSA [pEC50] | pEC50 (cAMP accumulation), 0.1% HSA [pEC50] | pEC50 (cAMP accumulation), 4% HSA [pEC50]
B1 | 11.3 | 9.6 | 7.9
B2 | 11.3 | 10.2 | 8.8
KCNTATCATQRLANFLVHSSNNFGPILPPTNVGSNTY-NH2 (disulfide 2-7; ends not checked) [Pramlintide] | 11.4 | 11.2 | 11.1
B3 | 10.5 | 9.4 | 8.1
B4 | 11.7 | 10.4 | 8.8

What follows are binders tested against T2, human amylin 3 receptor (human, UniProt P30988 25-474; O60896 24-148) (assay: cell-based or functional assay).
T2 sequence (looked up) 1: T1 sequence (looked up)
T2 sequence (looked up) 2: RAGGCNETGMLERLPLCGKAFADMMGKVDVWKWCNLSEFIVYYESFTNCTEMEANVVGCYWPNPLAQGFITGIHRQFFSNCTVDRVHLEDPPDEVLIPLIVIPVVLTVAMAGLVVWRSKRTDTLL

Binder | pEC50 (cAMP accumulation), 0% HSA [pEC50] | pEC50 (cAMP accumulation), 0.1% HSA [pEC50] | pEC50 (cAMP accumulation), 4% HSA [pEC50]
B1 | 12.1 | 10.6 | 8.8
B2 | 12.2 | 11.2 | 9.6
KCNTATCATQRLANFLVHSSNNFGPILPPTNVGSNTY-NH2 (disulfide 2-7; ends not checked) [Pramlintide] | 12.5 | 12.6 | 12.5
B3 | 11.7 | 10.5 | 8.7
B4 | 12.2 | 10.7 | 9.5
